The target in this assay is cynomolgus GITR (cyno-GITR) (cynomolgus). The experiment in a line: ELISA, cyno GITR coated at 1 ug/ml. For orientation: In an ELISA, binding on a coated surface is turned into a signal by an enzyme label.

For one substance, EC50 results are on record in US20200131263A1.

In the case of “reference antibody BMAB (Merck's MK-4166 antibody)”, the EC50 stood at 0.269 nM.

Broadly, the EC50 is the midpoint of the concentration-response curve.
